According to patent US7659081B2, “Determination of AM-binding proteins and the association of adrenomedullin (AM) therewith” (The United States of America as represented by the …, priority 1999, dated 2010):
Where no end group is shown, it is not given here.

Assays:
[1] = Storage of non-radioactively labeled AM; format: physicochemical; details: stored at 4° C. for as long as 3 months
Description: Non-radioactive labeling of AM was accomplished by conjugating synthetic AM comprising amino acids 1-52 (Phoenix Pharmaceuticals, Inc., Mountainview, Calif.) with succinimidyl esters linked to biotin (Pierce Chemical Co., Rockford, Ill.), fluorescein (Molecular Probes, Inc., Eugene, Oreg.), or dinitrophenol (DNP; Molecular Probes, Inc.). Briefly, 100 μg of AM (16 μM) was dissolved in 1 ml of 50 mM sodium bicarbonate, pH 8.5, and the succinimidyl ester was added to yield a final molar concentration of 10:1 (linker:AM). The mixture was incubated with slow agitation for 1 hr at room temperature and the reaction was terminated by the addition of 0.1 M ethanolamine followed by another incubation for 1 hr. Unincorporated ligand was removed by extracting the AM using reverse phase SEP-PAK® C-18 solid-phase extraction cartridges (Waters, Milford, Mass.) and eluting the sample with acidic-isopropanol. The extract was lyophilized and reconstituted in 1 ml of TBS (0.05 M Tris-HCl, 0.15 M NaCl), 0.1% alkali-treated casein (ATC), 0.1% TWEEN® 20 nonionic detergent, and 0.05% TRITON® X-100 nonionic detergent, pH 7.4.

AMBP-1 (factor H) = biological target: T1, AMBP-1 (factor H) (Homo sapiens, UniProt P08603); assay: Ligand blot competition of labeled AM binding to plasma AMBP-1; details: 7 μM unlabeled peptide, preincubation 6 hr at 4° C.
T1 construct: Total proteins derived from human plasma (2 μl) were electrophoretically fractionated; from tissue; host or cells: human plasma
T1 sequence (P08603 19-1231): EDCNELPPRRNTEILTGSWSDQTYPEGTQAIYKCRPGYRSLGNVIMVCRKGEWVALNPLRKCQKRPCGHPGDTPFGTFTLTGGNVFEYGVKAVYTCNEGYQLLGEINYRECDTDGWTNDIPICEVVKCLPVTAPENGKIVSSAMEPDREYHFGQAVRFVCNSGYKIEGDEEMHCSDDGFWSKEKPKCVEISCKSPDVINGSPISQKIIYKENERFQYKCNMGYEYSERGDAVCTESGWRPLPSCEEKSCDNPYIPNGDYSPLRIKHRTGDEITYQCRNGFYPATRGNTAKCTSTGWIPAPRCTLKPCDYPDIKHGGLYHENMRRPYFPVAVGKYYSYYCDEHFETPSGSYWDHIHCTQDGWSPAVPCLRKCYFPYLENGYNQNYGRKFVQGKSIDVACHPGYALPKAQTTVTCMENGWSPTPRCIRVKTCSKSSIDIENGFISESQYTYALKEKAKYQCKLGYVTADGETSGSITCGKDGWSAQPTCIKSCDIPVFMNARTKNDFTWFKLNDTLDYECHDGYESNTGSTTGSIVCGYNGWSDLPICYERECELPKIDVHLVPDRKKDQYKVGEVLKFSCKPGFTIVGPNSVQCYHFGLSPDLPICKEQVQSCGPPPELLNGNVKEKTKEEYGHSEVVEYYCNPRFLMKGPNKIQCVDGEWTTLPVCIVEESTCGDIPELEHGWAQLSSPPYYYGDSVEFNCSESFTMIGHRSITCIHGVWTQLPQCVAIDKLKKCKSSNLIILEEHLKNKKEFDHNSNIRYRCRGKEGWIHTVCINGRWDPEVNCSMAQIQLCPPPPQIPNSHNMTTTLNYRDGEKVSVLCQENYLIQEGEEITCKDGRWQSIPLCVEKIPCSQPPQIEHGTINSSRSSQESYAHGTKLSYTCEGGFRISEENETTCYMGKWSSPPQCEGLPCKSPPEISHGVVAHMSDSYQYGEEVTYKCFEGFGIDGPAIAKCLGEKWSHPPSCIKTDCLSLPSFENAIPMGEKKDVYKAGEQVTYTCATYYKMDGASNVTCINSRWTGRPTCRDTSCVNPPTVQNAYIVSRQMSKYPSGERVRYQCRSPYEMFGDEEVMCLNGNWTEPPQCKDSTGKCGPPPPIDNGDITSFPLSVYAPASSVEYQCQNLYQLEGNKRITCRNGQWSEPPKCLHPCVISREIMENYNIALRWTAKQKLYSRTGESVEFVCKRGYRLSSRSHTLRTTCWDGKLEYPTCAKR
Description: Total proteins derived from human plasma (2 μl) were electrophoretically fractionated on 3-8% Tris-acetate gel (Novex, San Diego, Calif.) under non-reducing conditions. For the ligand blotting experiment, the proteins were transferred to a […] nitrocellulose membrane that was incubated for […] with 1% Nonidet P-40 (NP-40). Non-specific binding was further blocked with a 2 hr incubation in TBS containing 0.1% ATC. Incubations with 70 nM AM labeled with biotin, fluorescein, or DNP were carried out overnight at 4° C. in blocking buffer containing 0.1% TWEEN® 20 nonionic detergent. For biotin detection, the ligand blot was incubated with an avidin-biotin-peroxidase complex and the AEC reagent (Vector Laboratories, Inc., Burlingame, Calif.). For fluorescein and DNP, the ligand blots were incubated 1 hr at room temperature with rabbit anti-fluorescein or anti-DNP IgG, respectively, (1:1000 in incubation buffer; Molecular Probes, Inc.). Anti-rabbit antibody labeled with alkaline phosphatase (1:2000; Dako Corporation, Carpenteira, Calif.) was added for 0.5 hr, and the blot was developed using 4-nitro blue tetrazolium chloride/5-bromo-4-chloro-3-indolyl phosphate (NBT/BCIP) as the color-substrate solution (Roche Molecular Biochemicals, Indianapolis, Ind.).
Following this preincubation, labeled full-length AM was introduced and incubated overnight at 4° C.

AM/fH complex = AM/fH complex (Homo sapiens, UniProt P08603); details: 3M NaSCN
AM/fH complex, sequence (P08603 19-1231, one chain of several): as the sequence (P08603 19-1231) above
Description: (§1) Alternatively, the AM/fH interaction was analyzed using a multi-well assay. In accordance with this assay, a 96-well polyvinylchloride (PVC) plate was coated with factor H (5 ng/well, Sigma, St. Louis, Mo.). The plate was blocked with a solution containing TBS, 0.1% ATC, and 0.1% TWEEN® 20 nonionic detergent, and then incubated with fluorescein-labeled AM (50 nM) for 2 hr. Prior to the development of the assay, the wells were incubated for various time periods with PBS or 3M NaSCN pH 7.4. Following this, the plate was washed and incubated with anti-fluorescein polyclonal antibody (1:1000, Molecular Probes) and ^125I-Protein A (Amersham Pharmacia Biotech). Radioactivity was determined using a gamma counter. FIG. 6B.

factor H = factor H (Homo sapiens, UniProt P08603); assay: Multi-well plate competition of fluorescein-labeled AM binding to factor H; design: purchased Sigma; details: 50 nM fluorescein-labeled AM; factor H 5 ng/well; increasing concentrations of unlabeled competitor
factor H, sequence (P08603 19-1231): as above
Description: Lane 1: horseradish peroxidase (5 μg), a glycosylated protein used as positive control; Lane 2: soybean trypsin inhibitor (5 μg), a non-glycosylated protein used as negative control; Lane 3: AMBP-1 (2 μg). […] Lane 1: isoelectric focusing markers; Lane 2: AMBP-1 (4 μg). […] Lane 1: AMBP-1 (100 ng); Lane 2: AMBP-1 (200 ng); Lane 3: commercially available human factor H (50 ng); Lane 4: human plasma (0.2 μl). […] Results represent one of two independent experiments. Values represent mean and standard deviation of three determinations. “B/B0” indicates the ratio of signals generated in the presence/absence of unlabeled competitor.
as §1

Compound | Competition for labeled AM/AMBP-1 complex on ligand blot (AMBP-1 (factor H)) | further results
Labeled AM: synthetic AM 1-52 conjugated via succinimidyl esters to biotin, fluorescein or dinitrophenol |  | Storage stability (activity) [1]: without significant loss of activity
AM1-12: AM truncated polypeptide (YRQSMNNFQGLR) | only full-length AM was able to dissociate | 
N#C[S-].[Na+] [NaSCN, sodium thiocyanate] |  | Dissociation of AM/fH complex (AM/fH complex): dissociated
AM16-21: AM truncated polypeptide (CRFGTC) | only full-length AM was able to dissociate | 
AM22-52: AM truncated polypeptide | only full-length AM was able to dissociate | 
insulin-like growth factor [IGF-1] | only full-length AM was able to dissociate | 
AM13-52: AM truncated polypeptide | only full-length AM was able to dissociate | 
calcitonin gene-related peptides [CGRP] | only full-length AM was able to dissociate | Effect on binding of fluorescein-labeled AM to factor H-coated plate (factor H): not affected
AM34-52: AM truncated polypeptide (TDKDKDNVAPRSKISPQGY) | only full-length AM was able to dissociate | 
proadrenomedullin N-terminal 20 peptide (ARLDVASEFRKKWNKWALSR) [PAMP] | only full-length AM was able to dissociate | Effect on binding of fluorescein-labeled AM to factor H-coated plate (factor H): not affected
amylin (KCNTATCATQRLANFLVHSSNNFGAILSSTNVGSNTY; not fully specified (C-terminus, bridges); cysteine pairing not given here; UniProt P10997 34-70, looked up) | only full-length AM was able to dissociate | 
